Target: GST-Foxp1 fusion protein (mouse) (mouse) (UniProt P58462)
Assay: pull-down; GST or GST-Foxp1 from bacterial extracts immobilised on GSH-agarose beads and washed; 1 ul of 35S-labelled in vitro translated Ikaros in 200 ul 0.02 M HEPES-KOH pH 7.9, 0.1% NP-40, 0.15 M NaCl, 1 mM DTT, 1 h at 4°C; quantified relative to input and to wild type (100%)

UniProt P58462, sequence (P58462 whole entry, the tested form may be a part): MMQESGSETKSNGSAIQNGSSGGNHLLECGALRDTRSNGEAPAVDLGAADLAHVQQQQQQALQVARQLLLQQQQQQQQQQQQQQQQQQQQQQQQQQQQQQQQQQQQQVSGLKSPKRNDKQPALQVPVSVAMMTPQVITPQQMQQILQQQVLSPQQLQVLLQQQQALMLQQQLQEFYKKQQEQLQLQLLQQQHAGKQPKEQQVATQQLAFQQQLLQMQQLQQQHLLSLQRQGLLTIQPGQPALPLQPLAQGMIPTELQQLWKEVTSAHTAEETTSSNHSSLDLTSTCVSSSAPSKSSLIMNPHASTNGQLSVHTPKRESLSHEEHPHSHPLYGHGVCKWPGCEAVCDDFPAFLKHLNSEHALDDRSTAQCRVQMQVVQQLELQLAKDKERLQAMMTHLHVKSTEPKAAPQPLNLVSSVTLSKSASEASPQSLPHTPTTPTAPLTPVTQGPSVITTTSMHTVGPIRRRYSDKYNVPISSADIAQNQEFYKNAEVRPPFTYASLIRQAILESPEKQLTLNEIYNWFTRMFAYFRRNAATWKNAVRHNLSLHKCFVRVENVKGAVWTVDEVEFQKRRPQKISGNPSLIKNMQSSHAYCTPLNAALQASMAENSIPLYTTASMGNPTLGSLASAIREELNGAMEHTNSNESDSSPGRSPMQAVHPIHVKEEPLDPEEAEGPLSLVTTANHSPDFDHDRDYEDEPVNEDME

| Substance | reduction relative to wild-type binding |
| --- | --- |
| IKΔ235-362 (mouse Ikaros deletion; in vitro translated) (domain or fragment) | 40% |
| IKΔC458 (mouse Ikaros deletion of the two C-terminal zinc fingers; in vitro translated) (domain or fragment) | 50% |

Source: PMC5323203
